In the DeepSol protein solubility set:

Test: soluble on expression in E. coli; label from the status in PepcDB or PDB records

Row | Sequence | soluble on expression in E. coli
1 | MGSDKIHHHHHHMLCNETTSTRDLILLGLKRHGERSVGEMAKELEITEMAVRRHIQALEKDGFVQTKLVRQAMGRPTTKYLLTEKGEERFPRNYLPLTLGFLKDIEELSGIDMIHVLFEKRKERLLAEYANQMKGCSFSERVEVLAQIQNDNGYMVEWKKIDDDTYQFIEYNCPISQVAKAYPVACACEKKLFKELLQTEAVVDNCCAAKDEAGYCSYTLKKPSVDG | not soluble
2 | GSGMEQFPKETVVESSGPKVLETAEEIQERRQEVLTRYQSFKERVAERGQKLEDSYHLQVFKRDADDLGKWIMEKVNILTDKSYEDPTNIQGKYQKHQSLEAEVQTKSRLMSELEKTREERFTMGHSAHEETKAHIEELRHLWDLLLELTLEKGDQLLRAL | soluble
3 | MDIRQLQFFVAIVRFGSFTKAAERLRVAQPAVSMAMKRLEEELDLVLFNRQERKVSLTAEGEIFLRHAEKILEEVASTETEMEELRGLAKGEVRVGIPPMMSAYFFPQIIRDFSNRYPELHLSVSGEGASKIQKMILDGELDMGVIAGASFPDTLELRRFLREEVIVCVPKNHHLAEMERLPLQEFARHPLIFYKEGYYLRELVFDVMRGAGLNPAIRFETNLYTLVKSLIRKGMGISVFLRMVVEEDDDLEAIPLDPPLYLDLQIAWKKYGYLSRANRAFVDFLLEQSARAHQPVGSCPARLVPAG | not soluble
4 | MGSDKIHHHHHHMVSYKILSVANKLKNIRDKYGLSQEDLAGNEITRNLISQIEHNKANLTRSAAEIMLKNLKKICDKKNVQVDEDINYLMEDEKSQAIKVLDKYIDDLRDLTIYKDNVFINKLREVEDFLVTWDFRDKKITIFELAGDYFSSTNDFYNASLYYEKAKALIDINIYSDNIVHILRKLSMTYYYMLRYQDDINCCEFALKQFKNMDEEYRCIFLFNSSLCYGQLKKYDLALKRLNEVESIIKNIDQNKYYEVLIQKAICYQWMKEYQKSLDIYNKLLESIDKSDYEKYLFILVNSSDIYVENSNFEKAESNLRIILENINNLNESSTLLPSTYLEMSRILKKLGYTKDAELYCLKSLNYAKRNTHYYLVNDIYGELLDIYKTLNVPEKVQTIKDEFFSNSSRDKNLNSKLMFKLLDFYFATNDIHSIKEIYDFSKNFIQERMINLCY | not soluble
5 | MGSLEKFNLIDEPWIPVLKGGRVVEVGIGEALLRAHEFARIETPSPLEEAVLHRLLLAVLHRALSGPRCPEDVLDWWRKGGFPQDPIRDYLNRFRDRFFLFHPEAPFLQVADLPEENPLPWSKLLPELASGNNPTLFDHTTEENLPKATYAQAARALLVHQAFAPGGLLRRYGVGSAKDAPVARPALFLPTGQNLLETLLLNLVPYTPEDDAPIWEVPPLRLGDLEGARTKWPLTGRTRVYTWPARGVRLLDEGDGVRFMGYGPGVEPLEATHRDPMVAQRLDAKGNLLVLRLSEERSFWRDFSAMLPRQGGKVAATLEHAENLQGELEDEGLEGRITLRVLGQVSDQAKVLDIRREVYPLPSGLLTPKAEENLEKALKMAEELGQGLKHLAQEVAKAVVGERDRGHGRSPYLEELTKLANSLPLERLYWHALDGAFPRFFARVEEEASLDLWREALRGAALEAWKATRRFLGTGARHLKALAQGEQEFGRLLGELGEEVRT | soluble
6 | MEIIKIDSHKDIEQQEDSVLVLGYFDGLHRGHKELFNQAREIAQKMQLKIVVLTFPESPQLAFTRFEPDLLNHINYPEKRYCKFAEYGVDCLYLTDFTSSFAKISSDDFIKNYIKALKAKAVVMGFDYKFSHSKANSDYLKHHFAGQVITVPEVQYEGKKISSTRVRQLIKQGDMTQVNRLLGYEFSTRGIVVHGDARGRTIGFPTANLAPLDRTYLPADGVYVADVIVGRKRYRSMTSIGKNITFGGTELRLEANIFDFDDDIYGETIEIFWLNKIREMVKFNSVNDLVEQLKSDKEIAINWGKS | not soluble
7 | QGMISFTQQNEQEADRIGIQVLQRSGFDPQAMPTFLEKLLDQARYSSRPPEILLTHPLPESRLADARNRANQMRPIVVQSSEDFYLAKVRTLGMYNSGRNQLTSDLLDEWAKGNVRQQRAAQYGRALQAMEANKYDEARKTLQPLLAAEPGNAWYLDLATDIDLGQNKANDAINRLKNARDLRTNPVLQLNLANAYLQGGQPQEAANILNRYTFNNKDDSNGWDLLAQAEAALNNRDQELAARAEGYALAGRLDQAISLLSSASS | not soluble
8 | MLIRVEIPIDAPGIDALLRRSFESDAEAKLVHDLREDGFLTLGLVATDDEGQVVGYVAFSPVDVQGEDLQWVGMAPLAVDEKYRGQGLARQLVYEGLDSLNEFGYAAVVTLGDPALYSRFGFELAAHYDLHCRWPGTESAFQVHRLAEDALEGVTGLVEYHDHFNRF | not soluble
9 | IGFRFDDSKGTVFIDGDVEEITGYSTEDFLSHRVKWADLVLPEDQYLIFERINRSVSNPDHSIETEYRIKRKNGEIRWIREFLQKFPEESKNSRQFQGFIHDITGRKKA | not soluble
10 | MSLKTALDIIEHAEEHLIEKIAENMHTFGMPSTVGRVLGIIYMNRKPMTLSELSEATGMSKTRMSQVVREMIDANIAEKVFEKGVRKDLYDVEQDYYQTFISLFAANWTKVVSKNKVLYKKLNRELSDLLQRDGLTPEAEEKVNQLLNELKEWLHYYDWLSRLIEFFESEEVFRYVPKTKECSSLKEGGSHHHHHH | soluble
11 | MDDIRCAIIIDPDLPPGVIANTAAVLAMSLGKRHPELVGQDLPDARGQPRQGITTVPIPVLKGGADQLRALRAAASETGLTLVELTSATRFTRSYQEYAAALAATPEEMVEYQGLALCGPGKRVRQLTGSLGLLRLEHHHHHH | not soluble
12 | MGSDKIHHHHHHMKLTAQIHIEKMAYELRDHAHAVIKNVLLMSNISTLSLQLAMRELAQHSRVALHFHPDQIDNRGLTVVDGLLRDGVYKSQFETHVSNGHLSPELGGSRDHWENQLFGHSYSGIKHRPKYGALDFGLCPLGPAPRFGSCYLVTHPQILSRCTFSYMDSHRLPKEKGTIKCFDAILAALLSESFERQYALGVSGLKPSKLIEHFSQHLTDDISRRFDLVPSGNLDHYIEAQIHGDVSLDQDIAILVADPSYMGTAIGDSLIALCHEYGIELHWHQGRQINVAQIPDDFRGAAMPILAQSLAENELINAEIIGRAAYQLQKQPASWSERGAHSKKRQDLKLLWHVLVKYGESTGQ | not soluble
13 | MRVYVFTPDGDVLDLPHGVTPLDFAYHVHSNLGHRCRGAKVNGHIVPLTYQLKTGDRVEVLTGKEIKPSRLEHHHHHH | not soluble
14 | MLIACRLCAKAVQQGLKTVVYVPDERLAGQFDKLLWTFTPTGFVPHCRVDNKLADVTPVIMNSRPVLMEAGCFGVLLNLDADVPPGFEQFPRVVEIVDEAEDGKLQARKRYRHYQEQGHDVRHHRLDGN | not soluble
15 | MENKHNPTSHTSHTWSELPELNPCVPLGTLLPDKSCPKTHPLADLIPPRQQQQFMHGNSWKLAPYGRSMIMRYAMQVRGQLAPTVLGINRTWKGDTCWNQIPKTSDCFHMVYKDHKLYFLNKTGSFKIFDFCGDIPQQTFEWSVKVERSQFGPPPPSNPWKVLATKLVVTVTGKVLKVEEMGGARPRTWSFRVFESMLLDQGITVLANDTGGFIRNTIYFSASHGNNTHDIYIFNLETQKTEPLHTLDSYSSSVQFYGAQWFVPSFKH | soluble
16 | MQLVREKEFVNQYHYDARNLEWEKENGTPETNFEVTFQLIDKDEQQKETVIVSVLQFVIVKEEFVISGVISQMVRILDRLVDKPSEFTQEEVESLAAPLLDMVKRLTYEVTEIALDRPGIHLEFKN | not soluble
17 | MGSDKIHHHHHHVGFLDGLMGGKQAPLVGLDISSSSVKLVELGQSASGQYVLERFATESFERGWIADGQIEKFDEVADAVRRVVSKSGTRSKRVAMAMPQSAVITKKIMLPAGLRDEELELQVESEANQYIPFSLDEVSLDFCVVGPSPSSVGDVEVLIAASRKDRVQDRQGLAEAAGLKPVVLDIESHASRLAMMRIVSALPNEGRDALVALFEIGAETTSLKVLRDEELLYDRDQAFGGSQLTQMISRQYGFSFEEAEQKKLASDLPEDYESSLLVPFVDSLAQEIGRALQYFFTSTPHHKVHYVMLGGGTATLPGLKERVTELTGFASMVVNPFEGMRLGSAVRESKLRREAPAYLTACGLAMRRFL | not soluble
18 | MSLDRVYHEFGATLRQLYQQDTPIIALCAAGIVIRTLAPLLLEKGAEPPVLAVAEDGSAVVPLLGGLGGVNVMAREIAAGLGVAAAITTSGELRFGTCLLNPPSGYALGDLELGKRFVSDLLGGESVRIEGAAPWLAAAKLPENDQARLTIRVGSAEREPVANELLIYPRSVLVACRGQRLAGEADSDLATHIRQALHQARIAVQSVACLLAADRDMADRALHQAAAQLGVPLRFLPAADSVAELAQQAVPQLLPPLKVGEDIAIAVASQPLDPEQIGRPREGHHHHHH | not soluble
19 | MATSGFKHLVVVKFKEDTKVDEILKGLENLVSQIDTVKSFEWGEDKESHDMLRQGFTHAFSMTFENKDGYVAFTSHPLHVEFSAAFTAVIDKIVLLDFPVAAVKSSVVATP | soluble
20 | MNTHHHIVISIGSNYAAETNIPAAMRLLRDSYPTIRFSKPIENAPIDFPYPSGLFTNLTAHFYSSENREEVGRKLKGIELQLGRTYTKPFDGRVAIDLDLIVWNNTILKNVDYSRPYIQSGLQELRINIQTQLNMTKESRSETFFHNKPNNWNCAQAVQKGFQDLTGMTDEAIEEEYRSKGGGRAEGGLCGALYSANRILESKGLQPVSQEFQAHAGGITCRELKGELKFPCNNCVRLAEELVEQRLSESQTID | not soluble
21 | VLDSFEILKALKSLDLLKNAPAWWWPNALKFEALLGAVLTQNTKFEAVLKSLENLKNAFILENDDEINLKKIAYIEFSKLAECVRPSGFYNQKAKRLIDLSGNILKDFQSFENFKQEVTREWLLDQKGIGKESADAILCYACAKEVMVVDKYSYLFLKKLGIEIEDYDELQHFFEKGVQENLNSALALYENTISLAQLYARFHGKIVEFSKQKLELKL | soluble
22 | GQLAQDGVPEWFHGAISREDAENLLESQPLGSFLIRVSHSHVGYTLSYKAQSSCCHFMVKLLDDGTFMIPGEKVAHTSLDALVTFHQQKPIEPRRELLTQPCRQKD | soluble
23 | MADKREPAPGWPILKGEYEVGDVKNSVLVITCGSHLPGKPILDAGAACTGSCKTENLGIEKVVAHIISNPNIRYLLVTGSEVKGHITGQSMMSLHANGVKENRIAGALGAIPYVENLNAAAVARFQEQVQVVNLLDTEDMGAITSKVRELASKDPGAFDADPLVVEISEEGEEEEEGGVVRPVSGEIAVLRSRLKAIEARMMDI | not soluble
24 | MKLIKNAEFGGERPLFESHDLRLENVIIRTGESAIKECSNIETVDCRFEGNYPFWHVHGFKIDRCYFDVGGRSALWYSDHLKMTDTIIDAPKMFREMDEIDIENVTMNDADEVFWRCNGIRIKNLKLHGGTYPFMFSNNIYVDGLESNSKYVFQYVKNVEIHHAKITTKDAFWEVENVTIYDSELNGEYLGWHSKNLRLVNCHITGEQPLCYAHDLILENCTFGPDCDRTFEYSTLQADIHGAITNIKNPMSGCIVADEFGSITIDENIKAPADCEIRLRDERTCFTD | soluble
